This is an account of results in US20260027153A1 (published 2026).

The target in test [1] is HLA-A*02:01 restricted NY-ESO-1 C9V peptide (…) pMHC (human). Briefly: transduced PBMCs loaded on pMHC-labeled nanovials (20 µg/ml pMHC), flow cytometry. On the technique in general: A flow cytometer gives signals particle by particle.
The target is the same in test [2]. The test is described as follows: transduced PBMCs loaded on pMHC-labeled nanovials (20 µg/ml pMHC), anti-NGFR staining, flow cytometry.
Test [3] concerns the target T1, MEAF6 (MYST/Esa1 associated factor 6) splicing variant peptide on HLA-A*02:01 (human).
T1 peptide: SGMFDYDFEYV
Briefly: multimer staining.

Test [4] addresses T2, SCAMP3 (secretory carrier-associated membrane protein 3), cancer-enhanced splicing epitope peptide on … (human).
T2 peptide: STMYYLWML
Briefly: multimer staining.

In test [1], 1G4 TCR showed a fraction of nanovials occupied by live cells of 17%. Also, the fraction of nanovial-bound live cells with NGFR expression in test [2] was found to be 93.9%.

B1: NVTCR21 (TCR, V domains shown)
Valpha: AQSVAQPEDQVNVAEGNPLTVKCTYSVSGNPYLFWYVQYPNRGLQFLLKYITGDNLVKGSYGFEAEFNKSQTSFHLKKPSALVSDSALYFCAVRDTPSGSARQLTFGSGTQLTVLP
Vbeta: GAGVSQTPSNKVTEKGKYVELRCDPISGHTALYWYRQSLGQGPEFLIYFQGTGAADDSGLPNDRFFAVRPEGSVSTLKIQRTERGDSAVYLCASSLTSSGGGPYNEQFFGPGTRLTVL
As to B1, the binding result in test [3] is “recognises”.

B2: NVTCR11 (TCR, V domains shown)
Valpha: GIQVEQSPPDLILQEGANSTLRCNFSDSVNNLQWFHQNPWGQLINLFYIPSGTKQNGRLSATTVATERYSLLYISSSQTTDSGVYFCAVDLNDYKLSFGAGTTVTVRA
Vbeta: NAGVTQTPKFRVLKTGQSMTLLCAQDMNHEYMYWYRQDPGMGLRLIHYSVGEGTTAKGEVPDGYNVSRLKKQNFLLGLESAAPSQTSVYFCASSSHGSTGELFFGEGSRLTVL
As for B2, the binding result in test [4] is recorded as “recognises”.

B3: NVTCR19 (TCR, V domains shown)
Valpha: KQEVTQIPAALSVPEGENLVLNCSFTDSAIYNLQWFRQDPGKGLTSLLLIQSSQREQTSGRLNASLDKSSGRSTLYIAASQPGDSATYLCAVTSGGSYIPTFGRGTSLIVHP
Vbeta: DGGITQSPKYLFRKEGQNVTLSCEQNLNHDAMYWYRQDPGQGLRLIYYSQIVNDFQKGDIAEGYSVSREKKESFPLTVTSAQKNPTAFYLCASSDPFRSGTDSPLHFGNGTRLTVT
B3: the binding result in test [4] is on record as “recognises”.
